Measured values reported in patent US20210040228.

Test system: D11-CD8stk-IL2Rg_A5-Hinge-IL2Rb
Sequence (chain, as listed by the source, chain 1 of 2): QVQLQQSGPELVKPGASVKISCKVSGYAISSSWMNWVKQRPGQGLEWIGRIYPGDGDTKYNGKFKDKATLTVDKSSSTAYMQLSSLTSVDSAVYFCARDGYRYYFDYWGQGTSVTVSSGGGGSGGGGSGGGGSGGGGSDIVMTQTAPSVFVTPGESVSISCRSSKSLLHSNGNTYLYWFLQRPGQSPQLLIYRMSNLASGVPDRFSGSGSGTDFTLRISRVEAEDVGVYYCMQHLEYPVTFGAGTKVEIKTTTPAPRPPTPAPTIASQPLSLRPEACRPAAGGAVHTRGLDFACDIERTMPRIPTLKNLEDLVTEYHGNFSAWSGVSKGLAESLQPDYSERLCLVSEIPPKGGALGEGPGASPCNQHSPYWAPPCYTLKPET
Sequence (chain, as listed by the source, chain 2 of 2): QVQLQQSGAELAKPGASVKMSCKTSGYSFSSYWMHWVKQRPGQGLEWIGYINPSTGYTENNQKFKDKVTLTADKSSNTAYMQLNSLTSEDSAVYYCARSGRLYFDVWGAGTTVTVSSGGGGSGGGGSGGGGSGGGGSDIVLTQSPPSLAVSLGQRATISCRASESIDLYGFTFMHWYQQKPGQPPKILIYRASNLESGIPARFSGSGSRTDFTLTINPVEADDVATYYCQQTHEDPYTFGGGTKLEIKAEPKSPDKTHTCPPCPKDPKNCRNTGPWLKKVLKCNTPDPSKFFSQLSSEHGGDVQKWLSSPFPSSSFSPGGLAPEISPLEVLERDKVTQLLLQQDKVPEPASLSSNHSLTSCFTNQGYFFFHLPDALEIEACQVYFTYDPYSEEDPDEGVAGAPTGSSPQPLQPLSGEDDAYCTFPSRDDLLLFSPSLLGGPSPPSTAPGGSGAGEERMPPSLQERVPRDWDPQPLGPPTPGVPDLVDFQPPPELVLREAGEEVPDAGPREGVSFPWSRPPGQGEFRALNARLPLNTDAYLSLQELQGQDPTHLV

## prostate-specific antigen (PSA)
  phosphorylation of Y694 of STAT5 (phosphoflow), 500 ng/mL PSA for 1 or 4 hours: In the cells expressing the PSA CCR, the presence of PSA lead to increasing STAT5 phosphorylation with time
